According to the DeepSol protein solubility set:

Test: soluble on expression in E. coli; label from the status in PepcDB or PDB records

Sequence | soluble on expression in E. coli
MGSDKIHHHHHHMLNLEQLNAFIAAVEKGSFSAAARHIGKSQSSVSIGVNNLELDLGVELFDRSTKYPQLTEQGERLYHQAKALMRQATRMESYAKGVIEAVEDQLVIGADPLVPMSVFDSALEKMAEKFPFTRVKLVKLTGNHLNRAIEADEVDVGFNIMSEAVPENLDFIGIARIEWVCICSPDYKFADLEAVDSEMLINERQIVCSSMLQNEYLAKLGRVSQETWEASDLDDMIRLVEQGIGWGIIPLSMYEEKAAIGTLSTFKPVIEKETGLITVDLLWKSTAQLGPAKSFFIDLLKR | not soluble
MGSDKIHHHHHHMLQTINLTQRYATKKLFENVNIKLDKNKRYGLIGANGAGKSTFLKILSKSIDCSSGEVIITSGMKMGVLGQDQYAFEDLSLKDAVLIGNKRLYDAIKEKERLYTEGDLSDDKVNARLGELETICVEEDPMYECEVAIEKILEDLGIPSSKHNDLMKTLPSSDKFKILLAQVLFPKPDILLLDEPTNNLDLNAIEWLENNLKRHEGTMVVISHDRHFLNAVCTHILDLDFHSVREFSGNYDDWYIASTLIAKQQEAERNKKLKEKEELEKFIARFSANASKAKQATSRQKQLDKLDIQSLAVSSRRDPSIIFKPKRTIGNEALECENISKSYDDQIVLNQVSLKVMPKDKIALIGPNGVGKSTLCKILVEELKPDKGVVKWGATVSKGYFPQNVSEEISGEETLYQWLFNFNKKIESAEVRNALGRMLFNGEEQEKCVNALSGGEKHRMVLSKLMLEGGNFLVLDEPTNHLDLEAIIALGEALFKFDGALICVSHDRELIDAYANRIIELVPSPKGASIIDFKGSYEEYLASKK | not soluble
MGSDKIHHHHHHMLTLRQALLALFHQFETLFHYLEHLCRHRSAARPGRSSFLHSSVEIQVKETLIRNLWYVAGTSDEFAPGQLVGQTIVGLPLVLWRPEAGGEVVAFDGRCCHKRMPLAAGKLLADGTLECAYHGLCFDSAGKCVKIPSQPGRAIPSRAKLRPYPIVEQDGMVWIWMGDDANPALRPPRIPELASPEWEAIRVQNAEVPTNYLLLIENLLDISHFYPLHDGNIGDIANSEIPVEFSHEGVQGNRSVTSVRKAESYRHPPYLEDFFGYELVDRHHSHSMISPAAIRVDLRCAPPGRLETEDERGYILTHLITPIDERHHRWRVIAACRAGHRWPADPSVSTVARVAEKFPGVIAQDLWALTEQQKMLDLADTHYLGEMHLRADTGILKAREIVRDMVAAEAQPASQAVAA | not soluble
MGSDKIHHHHHHMLTMKPEFVAQLERVLSSVEMLLPRAVKPVNWSTCYAANWRRHSFSGFLQAVRVTDTTSLHELLGVEKQKEIMISNTRQFLKGLPANNALLWGSRGTGKSSLVKALLNEYACEGLRVIQVEKEDLIYLSDIFSAVEGEPYRFILLCDDLTFEPGELTYKILKSALDGSVYSPPENVLIYVTSNRRHLLPEYESDNIGWKLVNGELQESEATEEKIALSDRFGLWVPFHVFTQDRYLEAVRLCVEREARTREVDIPWSEQLRLDAIQWSHDKKKRCGRTAYQFSKHWVGKYLLARQAA | not soluble
MGSDKIHHHHHHMLTSRKFFPSLSSLRALEALDRLGSASAVAEELALTQSAVSRQLQTLEGQMGVELIRRDRKRLSLTPAAQDYVTEIREALNRIAQASLRLQVAPAGGTVNLAILPTFGMRWLMPRLPEFSRLHPDITINMTTRLRPFNFASEPFDAALHFGEPDWPGTDRLLLRAERVLPVCAPGLLPHGAPKSPADLLRLPLLHIQTRPRAWQDWFAQMGVTCPETLPGTLYDQFATIGQAALHGLGVALLPNYVVEQDLATGRLVAAYPDAVETLGAYYLVWPRARGNDPSLRAFRHWLAAQAEPEEGLPR | not soluble
MGSDKIHHHHHHMLTTGTTRITGDRKLNDLIGHLIDPQLVEVEAAPQIKAMATSRLNFKMQKQTQTNWCWAAVSASVGNFYRTGSWTQCGVASASLDRNCCNQPGPCNIYGYLDSALRITRSYNGMNRGSLQMSAIRNQIKKGRPIGLRCAWYGGGAHFLVIYGTDGDYLLIADSIYGYSTRALNSFPRLYKSGGNWTDTYFTVKK | not soluble
MGSDKIHHHHHHMLTTLAINNYRSLRDIRLPLGRLNLVTGANGSGKSNLYKALRLLAQTAQGGVVNALAQEGGLDSCFWAGPENLTKGMLSGDTEITPTVRQQTKRLKLGFAGDEFSYLIELGLPKPDNTTLFGLDPQIKREAIWVGNKYRPAAVLVERRGPMVKGRAQQRGQDGWQSLNQHMQHGDSIFTELSDPSRTPEVLRLRDSIRAWRFYDHFRSDSEAPARQPQLGTRTPVLHHDGRDLASAIQTIFEIGDRESFDEAVSDAFPGAHVTIGYQAGGLLSVNFHQQGLLRPLNAQELSDGTLRYLLLIAALLTPRPPELMVLNEPETSLHPDLLPALARLIAKATKVCQLWVVSHANRLINALNEFEQCQLIELDKQLGQTRIVGQDLLSTPGWNWQQKAQG | not soluble
MGSDKIHHHHHHMLVASLVLLGLYDLFQAKHSILRNFPVIGHMRYLLEMIGPELHQYFVESDTDGKPINKNHRNYIYERAKEQNQTRPFGTQLNVYDDNYKWMQHSIYPAKKMDTPPRVVIGGKDCQQPYSASLFNISAMSFGALSKNAIQALNLGAKAGEFFHDTGEGGISEYHLQGGDLVWEIGTGYFGCRTGNGCFDAEKFKQKANWE | not soluble
MGSDKIHHHHHHMLVENSHTPDALAEAFATVDGLMATGKFARSLSVMLPFVQTGELDAGLLDRTADCFFEMRDYENAVNVMRHVTATWPDDPSAWGKLGLMLQTKGDLLGAEQAFEEVLKRDPNSIPALTALNGIETFSVDSLYAQRLMSLSEREDLDAKHRALIHYALAQIAHGSGEAEVAFTLFQSARNEVAGPFAPAIFDEMVAEQEALFEPRPASEDASLLPKLVFIGGMPMSGTGLVDRILAQHPGVFSVGAKTALSRTHGAIRMHLAKTDRPCNYWDWMEHLSAEEIDIFRQYYLERALGGQVAGGKTIVDAHPLGCLEFGLAQFLFPEAKFVFMSRHPMDTALANIASNVLNGNALASRTEWIAQVMRTVYSSATVYASKLGDSMRLQSYEALVQNSEREIGLLLEHAGLEYNAACLTPNALCDVPQIATMLGQEELSTETQNQWLPYEEQLQGFYEQLGGERWVSAWEDFDKTLR | not soluble
MGSDKIHHHHHHMLVVGASGSGKSTFANCINGLIPFKTKGNITGELYINNQDATVSCLHDRSNVVGTVLQDTDGQFIGLTAAEDMAFLLENNCVEQDDMKKNVSYWAEKVGMIEHLNHRPQDLSGGQKQRVSLGGILIHRTPILILDEPLANLDPATGHETLRLLNNIHEETKSTMIIVEHRLEESLDDTFDRVLLFKDGKIIANTTPSDLLKSSKLKEAGIREPLYCTALKYAEVDVESIDNLANLRDVCMSEHVKFKVKKWIDETSANNDNKYKSEPLLELNEVCVQYSDYSNSVLNNVQLNVYRREMLSIVGHNGAGKSTLAKAICGFLDITGNIQFCNRGFNQLSISERSEFVGYVMQNPNHMISEKMIYDEVALGLRARGMKESDIKIRVENVLKICGLYAFRNWPIAALSYGQKKRVTIASVLVLNPEIIILDEPTAGQDFYHYNEIMSFLIELNRQGKTIIMITHDMHLLSEYSSRTVVLSKGQVVADTTPVLILNDKKICEIASLRQTSLFEMAEYIGISEPQKLVQLFINHDRKVRRQ | not soluble
MGSDKIHHHHHHMMDMTTRPTLQHFLSDTKHGPYVSLYMSWPENTSVEALRLRFKNMVKHTKSVMTETYPETDFSAYAAELEPYEQDPTFWQTCETNGFGMLTNGAQTYVTPMYEAVDEVAMVTDMPQILPLMLDEATATDFDILALNADSIQMYHNHGHQVRPISLPDDAPQTLKGTLGTEIRGGETNSVSQGGGRVTHHGHNEKSAEKASDQRRFYQAVDQYVLANHSNPHKMPLVLMGLAENVAVFREISKNHHLLPKLAVVKSPANLDFVELDDLLTPVRETLRDRRRQNFAEIIENARGNDSYTDHLEEVVQAAVAGRIAILFVQAGARIHARLEGTQIERDSINAQHANLLNDLADIVLSHGGQVELLTEAYLPVEVGAMVRYA | not soluble
MGSDKIHHHHHHMMEKVTQMIAMLIKAWKKESVSQIDTPPVPATPEPKQQSPNNSACLTERVNTFLQTHYDFRYNRLTEETEFRPLSGAKTEFRPIGKRELNTLCMEAHAEGISCWDKDVSRYIYSTQIGEYHPFRLYMDELPPWDGIDRLTPLARRVSALPLWVKGFHTWMLGLAAQWEGKTGVHANSLAPILISAEQGRMKSTFCKSLMPKVLQRYYMDNLKLTSEGQAERLLSEMGLINLDEFDKYAESKMPLLKNLMQMSSLHVCKAYQRNFRDLPRIASFIGTSNRSDLMSDPTGSRRFFCVEVEKPINCEGIEHEQIFAQLKAELADGCPYWFDKETEREIQQNNAPFYRTCPAEEVFLSCFRTSASAEEKYLRLSAADIYKELKKRNAAALRGFNPNHFAQVLIKMGVERKHTEYGNVYLVVRR | not soluble
MGSDKIHHHHHHMMEMVNNSFRHGILFQEGKMEEARFIERPNRFTVRCALGSEILDAYLPNPGRLWELLLPDSVLYVVRRDVGQDRKLRGVVVAVEREGRPVMLHTLACNDIVADLLRQKRLPGFEGMNILQREIARGRSRFDFLLEQNGAPRLLEVKSCTLFGRCIAMFPDAVTLRGRRHLLELAELSRQGTPAHVLFLVHWPHADFFLPDYHTDFDFASTFLAVRDAVRFSALAVDWQPDMTPGAEIRELYIPWELLEREVQDSGCYLLVLHLPRNENVIPGGSTLLSLRKGYYVTVVSIRSGLTRHLQKSSRRRPGSENSRKSTVPDNLKAAADKILAIPIRTTEPLEAELNDALSRIADWSVPGFEARGDAGLAPVFGMAGPPLQRRAFVELLLDFRINRLEKFLARGAGSSAGPPVGNPSLEKIQ | not soluble
MGSDKIHHHHHHMMFEFNFARAMASLREEYAKDAKINIQHVWQNETAAVIAKALATEVSFDNAMFVENKPMRISDQQIRQLPVEAQKDLQQKILQNAANGIGFLYGSHLVGGLDGKPSPELLTSLHRFINSPDMFKFIQSITGIEGICYASLQASRYIQGNFLTRHNDVVESEGRKVAFVFGFTPEWHPDWGGLLQFYTPKGVLTDTWVPTFNNLALFDVHHPHSVSFVAPFAKRPRFSVTGWFRTIAPSK | not soluble
MGSDKIHHHHHHMMGLPTLEQMQFQHAAAQLNALHAELIDDDRLEEWPDLFEEKCQYSVISAENHNRSLNLAAVFCDSRGMLVDRIVSLRRANIFPAHSYRHILGPTRVKSTSGQIVTTQTNYVVLMTRNDGQTSIYNSGKYVDQIDVSGAAPRFLSKTAIFDTHLIDTMMVRPI | not soluble
MGSDKIHHHHHHMMIHGFQSSHQDFSFGPWKLTASKTHIMKSADVEKLADELHMPSLPEMMFGDNVLRIQHGSGFGIEFNATDALRCVNNYQGMLKVACAEEWQESRTEGEHSKEVIKPYDWTYTTDYKGTLLGESLKLKVVPTTDHIDTEKLKAREQIKFFEEVLLFEDELHDHGVSSLSVKIRVMPSSFFLLLRFFLRIDGVLIRMNDTRLYHEADKTYMLREYTSRESKIANLMHVPPSLFTEPNEISQYLPIKEAVCEKLVFPERIDPNPVDSQSTPSE | not soluble
MGSDKIHHHHHHMMKHRHPQLRFLGATDSVTGSRYLVEAAGKRILVDCGLFQGYKVLRDRNRIPFPVRPDSIDAILLTHAHLDHTGYVPALVRDGFNGPVYATEGTTELCTLLLPDSGHLQEEEAKYAYEHGSSRHSPPVPLYTAADAVRSLDSFREHGFDTPLELGGGIAATFLPAGHILGAAQIRLAVGQHSVHFTGDLGRTDDPLMFPPRGLGAADILVTESTYGNRKHSSLDPELQLGEIITRVAKKNGVIMIAAFAVGRAETLMLHLSRLRSKNAIPDIPVYLNSPMAIDASGMYQRHPDEHRLKQPEYEDMYKVAKMTRTVDDSKLLNLRGGPMVIISASGMLTGGRILHHIAEYGPDPKNAIILSGYQAGGTRGAALAAGVRQLRIYGEDVRIRAEVIQMESLSAHADSDGLIEWMRAAAREPRMTYITHGEPEASDALRIRIKRELGWRVRVPEYLEGISLEDPT | not soluble
